Positions count from the first letter of the chain named.
T1: human FcRH5 protein fragment (soluble) (human, UniProt Q96RD9 16-851)
T1 construct: whole entry named; also called soluble human FcRH5; Human FcRH5 (BIACORE analyte)
T1 sequence: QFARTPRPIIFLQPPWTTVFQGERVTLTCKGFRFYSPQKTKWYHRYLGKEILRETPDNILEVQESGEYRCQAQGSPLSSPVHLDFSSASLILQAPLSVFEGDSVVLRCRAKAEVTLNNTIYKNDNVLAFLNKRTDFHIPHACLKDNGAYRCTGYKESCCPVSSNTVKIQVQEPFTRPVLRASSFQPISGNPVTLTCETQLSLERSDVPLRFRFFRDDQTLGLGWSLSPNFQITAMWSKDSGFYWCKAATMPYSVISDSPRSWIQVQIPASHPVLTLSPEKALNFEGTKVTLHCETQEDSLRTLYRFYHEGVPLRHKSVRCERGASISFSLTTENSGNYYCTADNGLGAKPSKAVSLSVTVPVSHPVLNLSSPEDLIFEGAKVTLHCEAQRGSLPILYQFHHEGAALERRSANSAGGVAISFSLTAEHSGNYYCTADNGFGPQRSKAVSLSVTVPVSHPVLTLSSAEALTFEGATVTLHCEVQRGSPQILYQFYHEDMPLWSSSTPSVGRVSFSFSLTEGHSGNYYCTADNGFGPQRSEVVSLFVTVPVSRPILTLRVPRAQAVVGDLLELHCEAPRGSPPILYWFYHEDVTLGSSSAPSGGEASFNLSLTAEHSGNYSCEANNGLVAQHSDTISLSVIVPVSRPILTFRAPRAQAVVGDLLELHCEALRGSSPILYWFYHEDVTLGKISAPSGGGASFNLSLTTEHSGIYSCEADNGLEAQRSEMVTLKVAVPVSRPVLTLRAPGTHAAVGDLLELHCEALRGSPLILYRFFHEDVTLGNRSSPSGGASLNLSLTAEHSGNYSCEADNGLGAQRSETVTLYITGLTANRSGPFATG

T2: human FcRH2 (full-length, on SVT2 cells) (human, UniProt Q96LA5 20-508)
T2 construct: whole, on cells; also called SVT2-FcRH2
T2 sequence (looked up): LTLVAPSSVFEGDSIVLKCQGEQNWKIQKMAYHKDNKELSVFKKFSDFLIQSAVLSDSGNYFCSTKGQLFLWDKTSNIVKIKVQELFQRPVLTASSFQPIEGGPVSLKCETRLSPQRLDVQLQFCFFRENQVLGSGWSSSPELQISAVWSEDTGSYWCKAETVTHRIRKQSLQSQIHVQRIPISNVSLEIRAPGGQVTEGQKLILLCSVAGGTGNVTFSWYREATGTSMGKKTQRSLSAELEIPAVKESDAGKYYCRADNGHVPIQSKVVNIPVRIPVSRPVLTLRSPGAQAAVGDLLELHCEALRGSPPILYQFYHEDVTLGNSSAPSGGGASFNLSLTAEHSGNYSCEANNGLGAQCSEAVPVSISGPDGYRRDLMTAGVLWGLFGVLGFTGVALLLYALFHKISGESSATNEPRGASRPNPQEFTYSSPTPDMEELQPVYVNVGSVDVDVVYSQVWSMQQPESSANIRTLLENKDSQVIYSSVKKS

T3: human FcRH1 (full-length, on SVT2 cells) (human, UniProt Q96LA6 17-429)
T3 construct: whole, on cells; also called SVT2-FcRH1
T3 sequence (looked up): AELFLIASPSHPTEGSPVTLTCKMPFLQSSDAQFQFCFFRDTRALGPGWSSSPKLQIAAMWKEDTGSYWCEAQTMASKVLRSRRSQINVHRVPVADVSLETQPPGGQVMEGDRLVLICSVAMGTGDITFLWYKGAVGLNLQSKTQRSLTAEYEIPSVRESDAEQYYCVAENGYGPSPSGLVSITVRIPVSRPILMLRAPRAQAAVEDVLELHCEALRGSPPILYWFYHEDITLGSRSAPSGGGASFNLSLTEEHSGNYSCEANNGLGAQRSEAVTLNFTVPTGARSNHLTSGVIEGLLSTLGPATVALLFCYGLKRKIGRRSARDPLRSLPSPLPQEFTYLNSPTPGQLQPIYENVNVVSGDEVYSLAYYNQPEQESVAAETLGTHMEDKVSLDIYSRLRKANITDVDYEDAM

T4: human FcRH4 (full-length, on SVT2 cells) (human, UniProt Q96PJ5 20-515)
T4 construct: whole, on cells; also called SVT2-FcRH4
T4 sequence (looked up): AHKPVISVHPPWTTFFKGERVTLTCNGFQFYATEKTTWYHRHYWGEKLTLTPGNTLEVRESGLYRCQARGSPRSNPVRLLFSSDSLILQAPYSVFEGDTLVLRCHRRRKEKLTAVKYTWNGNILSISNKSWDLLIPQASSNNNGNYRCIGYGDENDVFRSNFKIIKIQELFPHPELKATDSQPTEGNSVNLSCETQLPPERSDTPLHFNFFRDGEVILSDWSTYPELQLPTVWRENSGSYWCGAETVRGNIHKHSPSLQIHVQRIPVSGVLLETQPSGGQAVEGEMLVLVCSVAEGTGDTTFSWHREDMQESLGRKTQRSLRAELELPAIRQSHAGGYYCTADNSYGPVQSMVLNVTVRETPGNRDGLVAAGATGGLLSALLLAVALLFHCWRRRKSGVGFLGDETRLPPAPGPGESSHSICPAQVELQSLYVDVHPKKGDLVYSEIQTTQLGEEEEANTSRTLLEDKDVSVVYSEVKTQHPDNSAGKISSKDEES

B1: hu1G7.v1.4/38E4.v1 TDB (bispecific antibody, V domains shown)
VH 1: EVQLVESGPGLVKPSETLSLTCTVSGFSLTRFGVHWVRQPPGKGLEWLGVIWRGGSTDYNAAFMSRLTISKDNSKNQVSLKLSSVTAADTAVYYCSNHYYGSSDYALDNWGQGTLVTVSS
VL 1: DIQMTQSPSSLSASVGDRVTITCKASQDVRNLVVWFQQKPGKAPKLLIYSGSYRYSGVPSRFSGSGSGTDFTLTISSLQPEDFATYYCQQHYSPPYTFGQGTKVEIK
VH 2: EVQLVQSGAEVKKPGASVKVSCKASGFTFTSYYIHWVRQAPGQGLEWIGWIYPENDNTKYNEKFKDRVTITADTSTSTAYLELSSLRSEDTAVYYCARDGYSRYYFDYWGQGTLVTVSS
VL 2: DIVMTQSPDSLAVSLGERATINCKSSQSLLNSRTRKNYLAWYQQKPGQSPKLLIYWTSTRKSGVPDRFSGSGSGTDFTLTISSLQAEDVAVYYCKQSFILRTFGQGTKVEIK
notes: knob-into-hole TDB; also called 1G7.v1.4 TDB; 1G7.v1.4 (TDB format)
B2: hu1G7.v1.13.1/38E4.v1 TDB (bispecific antibody, V domains shown)
VH 1: B1 VH 1
VL 1: B1 VL 1 with S52Y, S56T, S93Q
VH 2: B1 VH 2
VL 2: B1 VL 2
notes: knob-into-hole TDB; also called 1G7.v1.13.1 TDB
B3: hu1G7.v1.2/38E4.v1 TDB (bispecific antibody, V domains shown)
VH 1: B1 VH 1
VL 1: B1 VL 1 with S52Y, Y53N, H91Q, Y92F, S93Q
VH 2: B1 VH 2
VL 2: B1 VL 2
notes: knob-into-hole TDB; also called 1G7.v1.2 TDB
B4: hu1G7.v1.13/38E4.v1 TDB (bispecific antibody, V domains shown)
VH 1: B1 VH 1 with L48I
VL 1: B1 VL 1 with S52Y, S56T, S93Q
VH 2: B1 VH 2
VL 2: B1 VL 2
notes: knob-into-hole TDB; also called 1G7.v1.13 TDB
B5: hu1G7.v1.1/38E4.v1 TDB (bispecific antibody, V domains shown)
VH 1: B1 VH 1
VL 1: B1 VL 1 with H91Q
VH 2: B1 VH 2
VL 2: B1 VL 2
notes: knob-into-hole TDB; also called 1G7.v1.1 TDB
B6: hu1G7.v1.3/38E4.v1 TDB (bispecific antibody, V domains shown)
VH 1: B1 VH 1
VL 1: B1 VL 1 with L32I, H91Q
VH 2: B1 VH 2
VL 2: B1 VL 2
notes: knob-into-hole TDB; also called 1G7.v1.3 TDB

What follows are binders tested against T1, human FcRH5 protein fragment (soluble) (assay: BIACORE, TDB format).

Binder	Kd
B1	1.4 nM
B2	0.9 nM
B3	2.6 nM
B4	1.2 nM
B5	2.7 nM
B6	1.5 nM

The binders below were run against T2, human FcRH2 (full-length, on SVT2 cells) (assay: FACS, SVT2 cells, 3 µg/ml).
Experimental: (§1) Human FcRH5, cyno FcRH5, human FcRH1, FcRH2, FcRH3, and FcRH4 transfected mouse SVT2 cells were used to test binding and cross-reactivity of FcRH5 TDBs. The method was carried out as follows. Cultured SVT2 cells were lifted using non-enzyme cell dissociation buffer (Sigma, #C5914). 1×10⁵ cells were suspended in 100 μL and incubated with FcRH5 TDBs at 3 μg/ml. […] Cells were washed twice with FACS buffer before flow cytometry analysis was carried out on a FACSCalibur.

Binder	binding result
B1	binds
B2	binds
B3	binds
B4	binds
B5	binds
B6	binds

These binders were tested against T3, human FcRH1 (full-length, on SVT2 cells) (assay: FACS, SVT2 cells).
Experimental: as §1

Binder	binding result
B1	no binding (tested: 3 µg/ml)
B2	no binding (tested: 3 µg/ml)
B3	no binding (tested: 3 µg/ml)
B4	no binding (tested: 3 µg/ml)
B5	no binding (tested: 3 µg/ml)
B6	no binding (tested: 3 µg/ml)

Each binder was assayed against T4, human FcRH4 (full-length, on SVT2 cells) (assay: FACS, SVT2 cells).
Experimental: as §1

Binder	binding result
B1	no binding (tested: 3 µg/ml)
B2	no binding (tested: 3 µg/ml)
B3	no binding (tested: 3 µg/ml)
B4	no binding (tested: 3 µg/ml)
B5	no binding (tested: 3 µg/ml)
B6	no binding (tested: 3 µg/ml)

From patent US20240383984A1 (Genentech, published 2024)
